Changes are numbered by the printed parent chain. Values joined by “and” are separate entries in the source; they are usually repeats but may differ in a detail not shown here. Equal entries are not always repeated.
T1: human membrane-bound IL-6R subunit alpha (human, UniProt P08887 20-468)
T1 sequence: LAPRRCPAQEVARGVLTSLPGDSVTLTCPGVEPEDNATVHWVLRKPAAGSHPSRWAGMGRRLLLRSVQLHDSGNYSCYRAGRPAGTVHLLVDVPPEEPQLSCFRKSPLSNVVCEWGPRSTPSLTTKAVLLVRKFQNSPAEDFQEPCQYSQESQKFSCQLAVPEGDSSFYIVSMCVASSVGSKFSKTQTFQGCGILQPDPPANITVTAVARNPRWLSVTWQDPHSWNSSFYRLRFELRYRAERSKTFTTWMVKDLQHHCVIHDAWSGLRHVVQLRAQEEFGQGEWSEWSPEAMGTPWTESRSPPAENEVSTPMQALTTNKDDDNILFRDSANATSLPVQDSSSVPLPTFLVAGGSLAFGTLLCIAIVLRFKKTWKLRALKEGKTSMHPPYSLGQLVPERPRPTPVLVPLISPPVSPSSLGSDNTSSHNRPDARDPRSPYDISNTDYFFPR

T2: human soluble IL-6R (human, UniProt P08887 20-357)
T2 sequence: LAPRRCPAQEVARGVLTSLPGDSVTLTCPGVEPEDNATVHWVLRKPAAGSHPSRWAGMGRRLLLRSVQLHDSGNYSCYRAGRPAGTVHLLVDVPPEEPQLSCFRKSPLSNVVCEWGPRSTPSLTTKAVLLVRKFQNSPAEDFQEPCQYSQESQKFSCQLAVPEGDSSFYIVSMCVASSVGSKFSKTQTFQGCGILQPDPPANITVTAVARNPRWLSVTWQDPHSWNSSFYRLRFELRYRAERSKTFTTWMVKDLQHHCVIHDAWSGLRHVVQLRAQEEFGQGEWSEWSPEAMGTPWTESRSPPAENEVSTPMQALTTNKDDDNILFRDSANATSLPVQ

B1: anti-IL-6R IgG antibody C07 (antibody, V domains shown)
VH: EVKLVESGGGLVQPGGSLKLSCAASGFTFSSYAMSWVRQTADKRLELVANINSNGGSTYYPDSVKGRFTISRDNAKNTLFLQMSSLKSEDTAMYYCAREGYYTMDYWGQGTSVTVSS
VL: DIVLTQSPASLAVSPGQRATISCRASESVDSYGNSFMNWYQQKPGQPPKLLIYLASNLESGVPARFSGSGSRTDFTLTIDPVEADDAATYYCQQNNEDPYTFGGGTKLEIK
B2: anti-IL-6R IgG antibody C19 (antibody, V domains shown)
VH: B1 VH with V5M, S31N, A33G, A41P, N50I, I51M, N54K, K65M, F80Y, E99D
VL: B1 VL with P15L, E27K, Y32F, N38H, P47S, K49R, Y53F
B3: anti-IL-6R IgG antibody C20 (antibody, V domains shown)
VH: EVKLMESGGGLVQPGGSLKLSCAASGFTFSNYGMSWVRQTPDKRLELVAIINSNGGSTYYPDSVKGRFTISRDNAKNTLYLQMSSLKSEDTAIYYCARDGNFVSDYWGQGTTLTVSS
VL: B1 VL with P15L, S35R, M37L
B4: anti-IL-6R IgG antibody C12 (antibody, V domains shown)
VH: B3 VH with L47W, I50N, K76Q, I93M, A97T
VL: B1 VL
B5: anti-IL-6R IgG antibody C09 (antibody, V domains shown)
VH: B3 VH with K3Q, M5V, G10D, I50A, I93M, F102Y
VL: B1 VL with P15L, N38H, Y100W

Biological target: T1, human membrane-bound IL-6R subunit alpha
Test: cell-based or functional assay

IC50 for the inhibition of IL-6 classical signalling-induced proliferation (Ba/F3_gp130_IL-6R cells + IL-6) [µg/mL]	IC50 for the inhibition of IL-6 mixed signalling-induced proliferation (Ba/F3_gp130_IL-6R cells + IL-6 + sIL-6R)	Binder
> 10	> 10 µg/ml and > 53 nM	B1
> 10	> 10 µg/ml and > 53 nM	B2
> 10	> 10 µg/ml and > 53 nM	B3
> 10	> 10 µg/ml and > 53 nM	B4
> 10	> 10 µg/ml and > 53 nM	B5

Biological target: T2, human soluble IL-6R
Test: cell-based or functional assay

Proliferation in % (Ba/F3_gp130 cells, IL-6 + sIL-6R = 100%; IL-6 trans signalling) at IgG 10 ng/ml [%]	Proliferation in % (Ba/F3_gp130 cells, IL-6 + sIL-6R = 100%; IL-6 trans signalling) at IgG 100 ng/ml [%]	Proliferation in % (Ba/F3_gp130 cells, IL-6 + sIL-6R = 100%; IL-6 trans signalling) at IgG 300 ng/ml [%]	Proliferation in % (Ba/F3_gp130 cells, IL-6 + sIL-6R = 100%; IL-6 trans signalling) at IgG 500 ng/ml [%]	Proliferation in % (Ba/F3_gp130 cells, IL-6 + sIL-6R = 100%; IL-6 trans signalling) at IgG 700 ng/ml [%]	Proliferation in % (Ba/F3_gp130 cells, IL-6 + sIL-6R = 100%; IL-6 trans signalling) at IgG 1,000 ng/ml [%]	Proliferation in % (Ba/F3_gp130 cells, IL-6 + sIL-6R = 100%; IL-6 trans signalling) at IgG 10,000 ng/ml [%]	Binder
98.8	92.2	78.3	70.2	55.3	41.2	9.6	B1
99.2	92.2	88.5	78.3	72.3	57.7	10.8	B2
103	88.5	84.8	52.8	36.1	16.3	6.5	B3
101	98.9	89.1	75.3	66.9	48.1	11.6	B4
98.2	93.1	88.3	82.6	82.5	72.9	25.8	B5

— patent US20260226179A1 (MAB DESIGNS, published 2026)
